What all share (assay): cell_activity
Series [1] deals with TALEN 1R2 (TAPBP exon 2 right arm) (synthetic construct). The settings on record: as pair 1L2*1R2 in hESCs, puromycin selection; SEQ 28 in the listing is printed reversed.
In series [2] the test system is TALEN 1L2 (TAPBP exon 2 left arm) (synthetic construct). The settings on record: as pair 1L2*1R2 in hESCs, puromycin selection; one or two alleles.
Series [3] relates to TALEN 2R1 (TAP1 exon 1 right arm) (synthetic construct). The settings on record: as pair 2L3*2R1 in hESCs, puromycin selection; SEQ 24 in the listing is printed reversed.
The test system of series [4] is TALEN 2L3 (TAP1 exon 1 left arm) (synthetic construct). The following applies: as pair 2L3*2R1 in hESCs, puromycin selection; one or two alleles.

“CTCTTGGCCAGGCCCTTT (double strand) [TAPBP exon 2 right half-site]”: the activity (% clones targeted) in series [1] stood at 33.3. As for “GATCGAGTGTTGGTT (double strand) [TAPBP exon 2 left half-site]”, in series [2], the activity (% clones targeted) was 33.3.

“GGCAAGTCCCGGCAGGG (double strand) [TAP1 exon 1 right half-site]” returned an activity (% clones targeted) in series [3] of 27.1. In turn, “TGAAGCCATTAGCTG (double strand) [TAP1 exon 1 left half-site]” registered an activity (% clones targeted) in series [4] of 27.1.

For the origin of these results see US20180250335.
